We go through 19 sequences from the DeepSol protein solubility set.

A short description of the data set: soluble on expression in E. coli; label from the status in PepcDB or PDB records.
As to “MGSDKIHHHHHHMKCLRESAIVAYAETKVMEKSDRDVWELDAEVLEALLERSGFEKGEIDGLVMAGFGLTAAGESFWAQVTADQLGLELDYCDQVHIGGCSATGSVARAAAAIDAGLCTTVLLLFADTGVAENNRGDRSFRREWADPYGVFGPPDAFGLLTRRYEHQYGLDYEMLGKLAVTQRAHAVLNENACEKLRKPITIDDYLNSRMIADPIRLLDCVMRCDAASGLLMTSRRRAREKGIDKFITPIGYGERTNFQGGENFVDVTRSGHEACGKRALAQAGLALKDVASFHPYDDFIIAIMLQLEAFGFCGRGQGVQFIREMNFSFDGDLPLNTGGGQISAGQAACCSHNLIEAIRQLMGEGGARQVRNTANALVSGIGWINYSRNWGTSSALVLAPNA”, the “soluble on expression in E. coli” value is listed as “not soluble”. Regarding “MSNLIELALRNAALDRTKLLSQVQKIEFLNGYDPRFVEGLISLEMIGDIDEYVASLMYVKMTDKYTQEEKEQLTDTILTINNDRLISCQYRFPQLYQKLMQDQFLSTFFSSSHLLPNIAPGTNNQSYETVSTNNKMKMESAKLYGHYEYYQCVVALITQIDGSRYFYHLNPNRIFGDYMGSAPLKLSGSELKDVKDITFILHPRSMVDYREFQRLQERNIVFKTVMLPVGAKSVSLSYDTDKDVLTVNNLEAGQTVTYNNLLQTPQYNRYQYTPEQYFMTQLYRGQTWAEALGEALDKYIVTRQEGATWWDLKPLFFNRKTTKNNMIAAARIKKEIEAGATSFDFTGVSRNGLLNQLLTTAVDYQLEYQRGLQNGVLSAEDLTTSAALR”, the “soluble on expression in E. coli” value is “not soluble”. Consider “MHYSSGNYEAFVRPRKSESADKKTAWLVGSGLAGLAGAAFLIRDGGVAGERITILEELDVPGGALDGLDVPEKGFVIRGGREMEEHFECLWDLYRSIPSLEVEDASVLDEFYRLNKDDPNFSLQRATQNQGQDAPDKALLTLNDRAQKDLLSVFLATREEMENKRINEVFSEDFLKSNFWLYWRTMFAFEEWHSALEMKLYLHRFIHHIGNLADFSSLKFNRYNQYESMVLPLVKWLQDHGVRFRYGIEVTDVDFDIHAEGKQATRIHWTEKGVEGGVDLGPDDLVLITIGSLTENSDNGDHHTPAKLREGPAPAWDLWRRIAAKDPAFGRPDVFGAHVTETKWASATITALDQRIPQYVEKIAKRNPFTGKIVTGGIVTVKDSSWLMSWAVHRQPHFKKQPKDQMIAWLYALFVDRPGDYVKKPMLDCTGEEITQEWLYHLGVPVEDIPELAAAGANTVPVMMPYITAFFMPRQAGDRPDVVPEGAVNFAFIGQFAESKQRDCIFTTEYSVRTPMEAVYTLMNVERGVPEVFNSTYDIRTLLAAIGPLRDGKGIDLPGPSFLHKLLMKKLEGTEIAELLKEFHLISELEHHHHHH”, for which the “soluble on expression in E. coli” value is “not soluble”. As for “MTERKIFNRLKSVLAEKGKTNLWLTETLDKNKTTVSKWCTNDVQPSLETLFDIAEALNVDVRELIVSTKR”, the “soluble on expression in E. coli” value is on record as “soluble”. As to “MGSDKIHHHHHHMADNTPKFSQGSTSDTVGYEDFLVDLKTRISNAQLRAVVAVNKELVLLYWQIGRDILHRQQQQGWGAKVIDRLASDLRKAFPDIKGFSSRNLKYMRAFAEAYNDEEFVQQAVAQIPWGHNVRLLDAVKDPAERLWYAQQTIQNGWSRNVLVHQIESKLYQRQGKATTNFNNTLPQPQSELAQQLLKDPYTFDFLNLGEDFLERDLERALIKHIRDFLLELGVGFAFVGSQYHLEVGGEDFYIDLLFYHLRLRCFVVIDLKIEDFKPEFSGKMNFYVSAVDDLLRHPNDQSTIGIILCRSKNKVIAEYSLRDMYKPIGVSTYQLKDNLPEFVQDNLPTIEQLESELETVVLKLEKLDDL”, the “soluble on expression in E. coli” value is “not soluble”.

Take “MNKLTIIVTYYNAEEYITGCLESIKQQRTQDFNLIIVNDGSTDQSKKLMDEAIKDYDKNIRFIDLDENSGHAHARNIALEEVETPYFMFLDADDELASYAITFYLEKFNNTDGLIAPIHSFTTQRPQFVDLDRVRVEYFNAKENINSFLRKQSACNIIFRTAIVRAHHIRFNENLNTYVDWSFVLEYMKYVNKFVRIFNFPFYFRGEVYDPFETLTLSEQNFDILFKDYVNSFYDAIKRATNPKVREFIVTKMGNKIANEFEPTRYDINERYQTHKDTLVELSKFLHVHLVKNQKLINKIETILLMNNETDKAFKVNQFRKTLRHVKNIVLRRKNKERSLYDLTDKEDNVKPKTIVFESFGGKNYSDSPKYIYEYMQKYYPNYRYIWSFKNPDKNVVPGSAEKVKRNSAEYYQAYSEASHWVSNARTPLYLNKKENQTYIQTWHGTPLKRLANDMKVVRMPGTTTPKYKRNFNRETSRWDYLISPNRYSTEIFRSAFWMDEERILEIGYPRNDVLVNRANDQEYLDEIRTHLNLPSDKKVIMYAPTWRDDEFVSKGKYLFELKIDLDNLYKELGDDYVILLRMHYLISNALDLSGYENFAIDVSNYNDVSELFLISDCLITDYSSVMFDYGILKRPQFFFAYDIDKYDKGLRGFYMNYMEDLPGPIYTEPYGLAKELKNLDKVQQQYQEKIDAFYDRFCSVDNGKASQYIGDLIHKDIKEQLEHHHHHH”: the “soluble on expression in E. coli” value is listed as “soluble”. “MSASVPADLRNLRACLLCSLVKSVESFQKEGCENCEDVLHLKGDEEKVYDCTSANYDGMIAAMSNNESWVCKWQKMQRKVKGMYAISVSGVLPNNIVSELKSLGVRYKPNQRDYSTQFKK”: the “soluble on expression in E. coli” value was “not soluble”. “MPIRDDISWPPSAVCSVSLILHLPGRFGHVSVAHLLLDHGADVNAQNRLGASVLTVASRGGHLGVVKLLLEAGAFVDHHHPSGEQLGLGGSRDEPLDITALMAAIQHGHEAVVRLLMEWGADPNHAARTVGWSPLMLAALTGRLGVAQQLVEKGANPDHLSVLEKTAFEVALDCKHRDLVDYLDPLTTVRPKTGQAACPPWLHRGPQIVFMWLKLRIALLEGHAELRVQPCRPLRLRKWCA”: the “soluble on expression in E. coli” value is recorded as “soluble”. On to “MGSDKIHHHHHHMIEQIGSVEEADAGKVLESLVLSFSPSLLPLRQRWRNNGLSADFLGDYVTTFFPGAGDDTTTADRQKHAKAAVSYIANELLENAMKYSAAESTRPITITLSLEAERITFIETNPVSRARAATFHSYATELIASDPMEMYLRILEEERSDDDGSGLGLITMINDYNASLSWRFEDPGEDTVMVSTIVQIPV”, for which the “soluble on expression in E. coli” value is on record as “not soluble”. The value for “MIRPKPIAFEQPQTMPSILYPIHPPFRREELVTPTRENQIFKELLISISIYNSGEERLERITRPPLMASIPNGRFYNCRVRSSGSKTKAIFQQFKISVCSRE” was “not soluble”. Regarding “LVIVTDPHQRIEWVNAAFEQQTGHSGPSVRGQPLCAVLQGEPAPGGCGDRLRAMLAEGRTARAEVEATAACGRRFWLDVSLQPLLDDEGALDGYMAVASDIT”, the “soluble on expression in E. coli” value was “not soluble”. “MYKIVTVKDVVRIPPRMFTMDPKEAAMLVLRDTYEGTYDRDEGVILSIVEVKEVGDGIIVPGDGATYHEVVFDVLVWEPKRDEVVEGTVVDVVPFGAFIRIGPMDGLVHISQLMDDYVVYDERNKQFVGKEKKYLLKIGDAVRARIITVSPKSRVIRENRIGLTMRQPGLGKFEWIEKEKRKEKEGKK”: the “soluble on expression in E. coli” value is “soluble”. “MAIQFELYKSPARKDEEDKELYHARVVNFQHIDTDYLAKEIQQATSLTEGDVKAVLESLSHFMGSRLREGERVHLDGIGYFQVKLNSLEPITSPKLKANQMKLKANIGFKADKKLRSSVSVVKVERSKLKLHSVPRSNEEIDRLLTAYFSNNQILTRSDFQGLCKLTLTTAARHIKRLKEEKKLQNINTRQSPVYVPMPGYYGKPEVEDTVK”: the “soluble on expression in E. coli” value is listed as “not soluble”. The value for “MAHHHHHHMGKYAVVVIGPAGSGKSTLCTVVAEHYATKGRSTHICNFDPAAEDLPYDPSIDIRELISLEDAMEGKGLGPNGGLVFCMEYLLGQGEVWLCDQLGDHEEDFIIVDMPGQLEVLSHIPAVPGFVRLLERSGFHVVVLFLLDALAATADAGKFVSGCTFALSCMVCFECPFMNVLTKCDLLPPAIREEALDHFCTCDFDYLNTKPLPERWREMVRTLAAVIFDFNLVTFRPMDNTDVAYVGNLCYLIDEALQVVDDAEVNDRDLPDASEAGEAVEDTMDWKHY” was “not soluble”; that for “MAHHHHHHMKNKSIRKERQSGETLEDNIEEINYCIKVIPKDKINSKGNGAIRLSNLDMNRSNNGNYYNQNNNVENINDFETECRNYIEDILKIDEYVKLPNSINNEQDKIKWKKAHSLRNRMKEYDLITRTRLYQSNSVNNKAKLNRERYIILNKIPRYREAFPSIMNNTSTDKIKEDIIRTYLKTHAAYFLSQNKKNSNLSLKNMGRNTYFSFRKKSDDRNNSLINYNKHMNDKSKSVEHNNCPNLKKKDRSYNLWKRITVDDIKNTHFTPTEKQYLKDYNIFLNDAFNNFKINQNNNKRQLNVKNQKNIPNYDMINNKIYGHIKNNANNNLYINNQKREDAYIINPSQNNIITSPNEEQYPYFNNYSYSDKNKNLSTYNTEGKRNIYTNDVKSNTNYQHSNNSNYSDESLNMFSNSSTSIYEKYNLKDKNFVLKRDRYALLGKIKNNKEIEVKLVLNKV” was “not soluble”.

Regarding “MSLEHFDDKSQLKRNGFYFSYNVDKENIEHWISAILFQVLKDKEDIVILSLGVDTLVGDSLGPLVGSILKRNGIPNVYGTLDRTVNASNIIKILDEIHERFKNPYILVVDAAVTAENNINDIVLRNGGFTPGFGVYRQLPTVGDFSLVGVVNKEDEREHNLIELLKKCRFDEVLKLARIISKILVLTFARMNKGDKEGHHHHHH”, the “soluble on expression in E. coli” value is reported as “not soluble”. In the case of “GPHMAVVDDLAPGMDSSPPSEDYGRQPPQDLAAEQSVLGGMLLSKDAIADVLERLRPGDFYRPAHQNVYDAILDLYGRGEPADAVTVAAELDRRGLLRRIGGAPYLHTLISTVPTAANAGYYASIVAEKALLRRLVEAGTRVVQYGYAGAEGADVAEVVDRAQAEIYDVADRRLSEDFVALEDLLQPTMDEIDAIASSGG”, the “soluble on expression in E. coli” value is on record as “soluble”. With “GHMAKHQIGVIGLAVMGKNLALNIESKGYSVAVYNRLREKTDEFLQEAKGKNIVGTYSIEEFVNALEKPRKILLMVKAGAPTDATIEQLKPHLEKGDIVIDGGNTYFKDTQRRNKELAELGIHFIGTGVSGGEEGALKGPSIMPGGQKEAHELVRPIFEAIAAKVDGEPCTTYIGPDGAGHYVKMVHNGIEYGDMQLIAEAYFLLKHVLGMDAAELHEVFADWNKGELNSYLIEITADIFTKIDEETGKPLVDVILDKAGQKGTGKWTSQNALDLGVPLPIITESVFARFLSAMKDERVKASKVLAGPAVKPFEGDRAHFIEAVRRALYMSKICSYAQGFAQMKAASEEYNWNLRYGDIAMIFRGGCIIRAQFLQKIKEAYDRDPALSNLLLDSYFKDIVERYQDALREIVATAAMRGIPVPGSASALAYYDSYRTAVLPANLIQAQRDYFGAHTYERVDKEGIFHTEWLK”, the “soluble on expression in E. coli” value was “soluble”. For “MGSDKIHHHHHHMNADDIRAMIQPAQVHRDVYISDAVYRLEMRHLFTNAWIFVGHDSQTPNKGDYITTQVGDQPVIMVRHTDGEVKVLYNRCPHKGTKIAIDRAGNTGKFFRCPYHAWSFKTDGCLLAIPLKKGYEGTGLSESQNGKGMQAVGAVYNYRGFVFARLAEDGIGFDEFFGGSLSSIDNMVDRAPEGRVEISGPPLRYMHKCNWKMLVENQTDTCHPMVAHESSAGTAVKIYEQMGNPEPRPPAMQIIAPFMSPYEFFEDMGIRTWPNGHGHTGVNMSIHSNYDAIPGYFEAMIESHGEERAKAILDESRHNTVYFPNVMVKAPLTQLRNFIPLGADRTLAESYVYRLVGAPEQLTAMSAMYNRMINAPTSIVGHDDLEMYERAQEGLHAEGMQWVDIRRLHTGPENFETEAVENGTTERQMRNQFHAWAKFMTMSMEDAPGVAAQ”, the “soluble on expression in E. coli” value was “not soluble”.
